Measured values from PMC314469, “Protein Interaction Networks by Proteome Peptide Scanning” (PLoS Biology, 2004).
Each block holds one binder with its values, some of them ahead of it.

Key:
Assay in all cases: SPOT array
[1] = biological target: T1, Myo5 SH3 (MYO5_YEAST), Q04439
T1 chain: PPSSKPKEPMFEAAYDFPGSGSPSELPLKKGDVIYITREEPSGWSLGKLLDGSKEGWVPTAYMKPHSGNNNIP

[2] = biological target: T2, Rvs167 SH3 (RV167_YEAST), P39743
T2 chain: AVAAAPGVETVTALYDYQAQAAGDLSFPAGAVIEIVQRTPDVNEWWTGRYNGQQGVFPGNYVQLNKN

[3] = biological target: T3, Boi1 SH3 (BOI1_YEAST), P38041
T3 chain: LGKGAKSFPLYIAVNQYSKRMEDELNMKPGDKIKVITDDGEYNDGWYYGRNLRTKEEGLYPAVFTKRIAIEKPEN

[4] = biological target: T4, Yhr016c SH3 (YSC84_YEAST), P32793
T4 chain: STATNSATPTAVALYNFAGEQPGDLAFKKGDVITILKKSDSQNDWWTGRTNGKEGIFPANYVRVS

[5] = biological target: T5, Boi2 SH3 (BOI2_YEAST), P39969
T5 chain: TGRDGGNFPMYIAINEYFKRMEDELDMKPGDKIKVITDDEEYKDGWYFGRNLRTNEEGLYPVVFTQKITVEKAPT

[6] = biological target: Sho1 SH3 (SHO1_YEAST), P40073
[7] = biological target: T6, Yfr024 SH3 (LSB3_YEAST), P43603
T6 chain: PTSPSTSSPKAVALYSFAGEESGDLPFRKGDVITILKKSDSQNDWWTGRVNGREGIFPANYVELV

Chain of Sho1 SH3 (SHO1_YEAST), P40073 (P40073 295-366): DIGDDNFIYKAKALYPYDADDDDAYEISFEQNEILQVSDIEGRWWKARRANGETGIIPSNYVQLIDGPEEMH

Binder: TEVWRKVPMKPIFE [YCR032W 1849-1862]
normalised SPOT signal, Boehringer light units (BLU); mean over the file's lines of this peptide [1]: 243
normalised SPOT signal, Boehringer light units (BLU); mean over the file's lines of this peptide [2]: 523
normalised SPOT signal, Boehringer light units (BLU); mean over the file's lines of this peptide [3]: 163
normalised SPOT signal, Boehringer light units (BLU); mean over the file's lines of this peptide [4]: 788
normalised SPOT signal, Boehringer light units (BLU); mean over the file's lines of this peptide [5]: 33.4
normalised SPOT signal, Boehringer light units (BLU); mean over the file's lines of this peptide [6]: 59.1
normalised SPOT signal, Boehringer light units (BLU); mean over the file's lines of this peptide [7]: 4970

Binder: TGYPRYFPQPPVQR [YLL058W 44-57]
normalised SPOT signal, Boehringer light units (BLU); mean over the file's lines of this peptide [1]: 5860
normalised SPOT signal, Boehringer light units (BLU); mean over the file's lines of this peptide [2]: 261
normalised SPOT signal, Boehringer light units (BLU); mean over the file's lines of this peptide [3]: 3760
normalised SPOT signal, Boehringer light units (BLU); mean over the file's lines of this peptide [4]: 36.7
normalised SPOT signal, Boehringer light units (BLU); mean over the file's lines of this peptide [5]: 34.1
normalised SPOT signal, Boehringer light units (BLU); mean over the file's lines of this peptide [6]: 44.3
normalised SPOT signal, Boehringer light units (BLU); mean over the file's lines of this peptide [7]: 415

Binder: TKFTKPKPKQPVLP [YLR439W 17-30]
normalised SPOT signal, Boehringer light units (BLU); mean over the file's lines of this peptide [1]: 445
normalised SPOT signal, Boehringer light units (BLU); mean over the file's lines of this peptide [2]: 23.4
normalised SPOT signal, Boehringer light units (BLU); mean over the file's lines of this peptide [3]: 295
normalised SPOT signal, Boehringer light units (BLU); mean over the file's lines of this peptide [4]: 2.8
normalised SPOT signal, Boehringer light units (BLU); mean over the file's lines of this peptide [5]: 6.1
normalised SPOT signal, Boehringer light units (BLU); mean over the file's lines of this peptide [6]: 57.7
normalised SPOT signal, Boehringer light units (BLU); mean over the file's lines of this peptide [7]: 0.2

Binder: TKKRKLGPKAPNPL [YOR004W 192-205]
normalised SPOT signal, Boehringer light units (BLU); mean over the file's lines of this peptide [1]: 694
normalised SPOT signal, Boehringer light units (BLU); mean over the file's lines of this peptide [2]: 156
normalised SPOT signal, Boehringer light units (BLU); mean over the file's lines of this peptide [3]: 495
normalised SPOT signal, Boehringer light units (BLU); mean over the file's lines of this peptide [4]: 12.6
normalised SPOT signal, Boehringer light units (BLU); mean over the file's lines of this peptide [5]: 37.3
normalised SPOT signal, Boehringer light units (BLU); mean over the file's lines of this peptide [6]: 25
normalised SPOT signal, Boehringer light units (BLU); mean over the file's lines of this peptide [7]: 321

Binder: TGKPRKTPRPPFPF [YLR422W 149-162]
normalised SPOT signal, Boehringer light units (BLU); mean over the file's lines of this peptide [1]: 1190
normalised SPOT signal, Boehringer light units (BLU); mean over the file's lines of this peptide [2]: 3630
normalised SPOT signal, Boehringer light units (BLU); mean over the file's lines of this peptide [3]: 1420
normalised SPOT signal, Boehringer light units (BLU); mean over the file's lines of this peptide [4]: 1160
normalised SPOT signal, Boehringer light units (BLU); mean over the file's lines of this peptide [5]: 27.8
normalised SPOT signal, Boehringer light units (BLU); mean over the file's lines of this peptide [6]: 121
normalised SPOT signal, Boehringer light units (BLU); mean over the file's lines of this peptide [7]: 6310

Binder: TLDEKNLPRLPTPF [YKR055W 36-49]
normalised SPOT signal, Boehringer light units (BLU); mean over the file's lines of this peptide [1]: 205
normalised SPOT signal, Boehringer light units (BLU); mean over the file's lines of this peptide [2]: 64.3
normalised SPOT signal, Boehringer light units (BLU); mean over the file's lines of this peptide [3]: 0
normalised SPOT signal, Boehringer light units (BLU); mean over the file's lines of this peptide [4]: 64.8
normalised SPOT signal, Boehringer light units (BLU); mean over the file's lines of this peptide [5]: 0
normalised SPOT signal, Boehringer light units (BLU); mean over the file's lines of this peptide [6]: 28100
normalised SPOT signal, Boehringer light units (BLU); mean over the file's lines of this peptide [7]: 92.4

Binder: TLDEKESPSVPPTV [YKL148C 624-637]
normalised SPOT signal, Boehringer light units (BLU); mean over the file's lines of this peptide [1]: 212
normalised SPOT signal, Boehringer light units (BLU); mean over the file's lines of this peptide [2]: 85.7
normalised SPOT signal, Boehringer light units (BLU); mean over the file's lines of this peptide [3]: 58.2
normalised SPOT signal, Boehringer light units (BLU); mean over the file's lines of this peptide [4]: 57.9
normalised SPOT signal, Boehringer light units (BLU); mean over the file's lines of this peptide [5]: 15.4
normalised SPOT signal, Boehringer light units (BLU); mean over the file's lines of this peptide [6]: 32.4
normalised SPOT signal, Boehringer light units (BLU); mean over the file's lines of this peptide [7]: 27

Continued, values first:

normalised SPOT signal, Boehringer light units (BLU); mean over the file's lines of this peptide [1]: 150
normalised SPOT signal, Boehringer light units (BLU); mean over the file's lines of this peptide [2]: 105
normalised SPOT signal, Boehringer light units (BLU); mean over the file's lines of this peptide [3]: 52.5
normalised SPOT signal, Boehringer light units (BLU); mean over the file's lines of this peptide [4]: 15.5
normalised SPOT signal, Boehringer light units (BLU); mean over the file's lines of this peptide [5]: 19.3
normalised SPOT signal, Boehringer light units (BLU); mean over the file's lines of this peptide [6]: 36.1
normalised SPOT signal, Boehringer light units (BLU); mean over the file's lines of this peptide [7]: 50.1
Binder: TKTDKSYPMSPVDA [YOR208W 444-457]

normalised SPOT signal, Boehringer light units (BLU); mean over the file's lines of this peptide [1]: 535
normalised SPOT signal, Boehringer light units (BLU); mean over the file's lines of this peptide [2]: 30.6
normalised SPOT signal, Boehringer light units (BLU); mean over the file's lines of this peptide [3]: 1510
normalised SPOT signal, Boehringer light units (BLU); mean over the file's lines of this peptide [4]: 31.6
normalised SPOT signal, Boehringer light units (BLU); mean over the file's lines of this peptide [5]: 13
normalised SPOT signal, Boehringer light units (BLU); mean over the file's lines of this peptide [6]: 64.1
normalised SPOT signal, Boehringer light units (BLU); mean over the file's lines of this peptide [7]: 304
Binder: TLKKKKTPKKPIAA [YKR084C 77-90]

normalised SPOT signal, Boehringer light units (BLU); mean over the file's lines of this peptide [1]: 249
normalised SPOT signal, Boehringer light units (BLU); mean over the file's lines of this peptide [2]: 198
normalised SPOT signal, Boehringer light units (BLU); mean over the file's lines of this peptide [3]: 51.5
normalised SPOT signal, Boehringer light units (BLU); mean over the file's lines of this peptide [4]: 32.2
normalised SPOT signal, Boehringer light units (BLU); mean over the file's lines of this peptide [5]: -0
normalised SPOT signal, Boehringer light units (BLU); mean over the file's lines of this peptide [6]: 39.5
normalised SPOT signal, Boehringer light units (BLU); mean over the file's lines of this peptide [7]: 202
Binder: TILERLTPLVPNNL [YKL017C 267-280]

normalised SPOT signal, Boehringer light units (BLU); mean over the file's lines of this peptide [1]: 556
normalised SPOT signal, Boehringer light units (BLU); mean over the file's lines of this peptide [2]: 430
normalised SPOT signal, Boehringer light units (BLU); mean over the file's lines of this peptide [3]: 463
normalised SPOT signal, Boehringer light units (BLU); mean over the file's lines of this peptide [4]: 148
normalised SPOT signal, Boehringer light units (BLU); mean over the file's lines of this peptide [5]: 103
normalised SPOT signal, Boehringer light units (BLU); mean over the file's lines of this peptide [6]: 301
normalised SPOT signal, Boehringer light units (BLU); mean over the file's lines of this peptide [7]: 607
Binder: TGKFRYMPFSPAGT [YPR135W 471-484]

normalised SPOT signal, Boehringer light units (BLU); mean over the file's lines of this peptide [1]: 76.4
normalised SPOT signal, Boehringer light units (BLU); mean over the file's lines of this peptide [2]: 130
normalised SPOT signal, Boehringer light units (BLU); mean over the file's lines of this peptide [3]: 95.6
normalised SPOT signal, Boehringer light units (BLU); mean over the file's lines of this peptide [4]: 82.1
normalised SPOT signal, Boehringer light units (BLU); mean over the file's lines of this peptide [5]: 6.9
normalised SPOT signal, Boehringer light units (BLU); mean over the file's lines of this peptide [6]: 86.9
normalised SPOT signal, Boehringer light units (BLU); mean over the file's lines of this peptide [7]: 304
Binder: TINSRFYPPIPISE [YMR154C 67-80]

normalised SPOT signal, Boehringer light units (BLU); mean over the file's lines of this peptide [1]: 118
normalised SPOT signal, Boehringer light units (BLU); mean over the file's lines of this peptide [2]: 313
normalised SPOT signal, Boehringer light units (BLU); mean over the file's lines of this peptide [3]: 79.3
normalised SPOT signal, Boehringer light units (BLU); mean over the file's lines of this peptide [4]: 50.4
normalised SPOT signal, Boehringer light units (BLU); mean over the file's lines of this peptide [5]: 21.9
normalised SPOT signal, Boehringer light units (BLU); mean over the file's lines of this peptide [6]: 72.9
normalised SPOT signal, Boehringer light units (BLU); mean over the file's lines of this peptide [7]: 132
Binder: TGGGRIVPGVPPGA [YGR054W 516-529]

normalised SPOT signal, Boehringer light units (BLU); mean over the file's lines of this peptide [1]: 158
normalised SPOT signal, Boehringer light units (BLU); mean over the file's lines of this peptide [2]: 32.6
normalised SPOT signal, Boehringer light units (BLU); mean over the file's lines of this peptide [3]: 546
normalised SPOT signal, Boehringer light units (BLU); mean over the file's lines of this peptide [4]: 21.2
normalised SPOT signal, Boehringer light units (BLU); mean over the file's lines of this peptide [5]: 11.1
normalised SPOT signal, Boehringer light units (BLU); mean over the file's lines of this peptide [6]: 56.3
normalised SPOT signal, Boehringer light units (BLU); mean over the file's lines of this peptide [7]: 95.1
Binder: TKAKKEKPKPPKPI [YMR044W 280-293]

normalised SPOT signal, Boehringer light units (BLU); mean over the file's lines of this peptide [1]: 214
normalised SPOT signal, Boehringer light units (BLU); mean over the file's lines of this peptide [2]: 101
normalised SPOT signal, Boehringer light units (BLU); mean over the file's lines of this peptide [3]: 8.4
normalised SPOT signal, Boehringer light units (BLU); mean over the file's lines of this peptide [4]: 5.8
normalised SPOT signal, Boehringer light units (BLU); mean over the file's lines of this peptide [5]: -0
normalised SPOT signal, Boehringer light units (BLU); mean over the file's lines of this peptide [6]: 23.8
normalised SPOT signal, Boehringer light units (BLU); mean over the file's lines of this peptide [7]: 162
Binder: TGESRKAPLIPLLK [YGR099W 447-460]

normalised SPOT signal, Boehringer light units (BLU); mean over the file's lines of this peptide [1]: 27.7
normalised SPOT signal, Boehringer light units (BLU); mean over the file's lines of this peptide [2]: 189
normalised SPOT signal, Boehringer light units (BLU); mean over the file's lines of this peptide [3]: 2030
normalised SPOT signal, Boehringer light units (BLU); mean over the file's lines of this peptide [4]: 43.3
normalised SPOT signal, Boehringer light units (BLU); mean over the file's lines of this peptide [5]: 21.1
normalised SPOT signal, Boehringer light units (BLU); mean over the file's lines of this peptide [6]: 44.1
normalised SPOT signal, Boehringer light units (BLU); mean over the file's lines of this peptide [7]: 157
Binder: TKRQRGEPSEPQQD [YGR241C 267-280]
